Here are results for seven substances from article PMC5096715.

In test [1] the target is complement component C3b, serum-derived (human) (UniProt P01024).
The target in another test is C3d C3d (Homo sapiens) (UniProt P01024). Description: biolayer interferometry. The note with it: cited from earlier work. In general terms: BLI is a label-free optical method that tracks binding on a fibre tip over time.
In test [2] the target is complement component C3b, serum-derived (human) (UniProt P01024). The source holds these as a separate data set.

C3d C3d (Homo sapiens), sequence (P01024 1002-1303): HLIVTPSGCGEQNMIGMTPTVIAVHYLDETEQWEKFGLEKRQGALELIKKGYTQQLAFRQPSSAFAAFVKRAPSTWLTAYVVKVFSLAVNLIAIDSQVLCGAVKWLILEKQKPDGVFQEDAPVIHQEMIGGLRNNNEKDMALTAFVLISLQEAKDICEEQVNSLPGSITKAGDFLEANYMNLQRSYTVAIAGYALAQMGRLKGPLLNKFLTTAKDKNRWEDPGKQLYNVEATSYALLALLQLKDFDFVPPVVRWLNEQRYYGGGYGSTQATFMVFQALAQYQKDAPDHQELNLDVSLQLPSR
complement factor H-related protein 1 (CFHR1), recombinant wild-type, sequence (Q03591 19-330): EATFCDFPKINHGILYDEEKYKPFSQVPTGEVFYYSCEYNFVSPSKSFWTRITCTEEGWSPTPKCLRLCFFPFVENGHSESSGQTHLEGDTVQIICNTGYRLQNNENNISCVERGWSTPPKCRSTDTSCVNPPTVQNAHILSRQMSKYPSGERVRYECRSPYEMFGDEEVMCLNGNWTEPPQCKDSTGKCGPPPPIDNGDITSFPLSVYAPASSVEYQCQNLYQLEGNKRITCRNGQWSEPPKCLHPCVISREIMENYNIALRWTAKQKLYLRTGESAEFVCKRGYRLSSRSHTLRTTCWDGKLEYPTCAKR
CFHR1, sequence (Q03591 19-330): as above
CFHR3, sequence (Q02985 19-330): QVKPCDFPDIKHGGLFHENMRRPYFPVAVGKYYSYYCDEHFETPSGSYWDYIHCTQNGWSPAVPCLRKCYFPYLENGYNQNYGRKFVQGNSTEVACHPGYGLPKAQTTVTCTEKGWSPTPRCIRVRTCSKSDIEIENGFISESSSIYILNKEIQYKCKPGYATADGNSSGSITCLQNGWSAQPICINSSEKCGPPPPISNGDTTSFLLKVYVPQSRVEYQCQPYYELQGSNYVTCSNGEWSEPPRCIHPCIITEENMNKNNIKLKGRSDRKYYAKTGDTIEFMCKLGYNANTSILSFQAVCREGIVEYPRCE
complement factor H (CFH), recombinant, sequence (P08603 19-1231): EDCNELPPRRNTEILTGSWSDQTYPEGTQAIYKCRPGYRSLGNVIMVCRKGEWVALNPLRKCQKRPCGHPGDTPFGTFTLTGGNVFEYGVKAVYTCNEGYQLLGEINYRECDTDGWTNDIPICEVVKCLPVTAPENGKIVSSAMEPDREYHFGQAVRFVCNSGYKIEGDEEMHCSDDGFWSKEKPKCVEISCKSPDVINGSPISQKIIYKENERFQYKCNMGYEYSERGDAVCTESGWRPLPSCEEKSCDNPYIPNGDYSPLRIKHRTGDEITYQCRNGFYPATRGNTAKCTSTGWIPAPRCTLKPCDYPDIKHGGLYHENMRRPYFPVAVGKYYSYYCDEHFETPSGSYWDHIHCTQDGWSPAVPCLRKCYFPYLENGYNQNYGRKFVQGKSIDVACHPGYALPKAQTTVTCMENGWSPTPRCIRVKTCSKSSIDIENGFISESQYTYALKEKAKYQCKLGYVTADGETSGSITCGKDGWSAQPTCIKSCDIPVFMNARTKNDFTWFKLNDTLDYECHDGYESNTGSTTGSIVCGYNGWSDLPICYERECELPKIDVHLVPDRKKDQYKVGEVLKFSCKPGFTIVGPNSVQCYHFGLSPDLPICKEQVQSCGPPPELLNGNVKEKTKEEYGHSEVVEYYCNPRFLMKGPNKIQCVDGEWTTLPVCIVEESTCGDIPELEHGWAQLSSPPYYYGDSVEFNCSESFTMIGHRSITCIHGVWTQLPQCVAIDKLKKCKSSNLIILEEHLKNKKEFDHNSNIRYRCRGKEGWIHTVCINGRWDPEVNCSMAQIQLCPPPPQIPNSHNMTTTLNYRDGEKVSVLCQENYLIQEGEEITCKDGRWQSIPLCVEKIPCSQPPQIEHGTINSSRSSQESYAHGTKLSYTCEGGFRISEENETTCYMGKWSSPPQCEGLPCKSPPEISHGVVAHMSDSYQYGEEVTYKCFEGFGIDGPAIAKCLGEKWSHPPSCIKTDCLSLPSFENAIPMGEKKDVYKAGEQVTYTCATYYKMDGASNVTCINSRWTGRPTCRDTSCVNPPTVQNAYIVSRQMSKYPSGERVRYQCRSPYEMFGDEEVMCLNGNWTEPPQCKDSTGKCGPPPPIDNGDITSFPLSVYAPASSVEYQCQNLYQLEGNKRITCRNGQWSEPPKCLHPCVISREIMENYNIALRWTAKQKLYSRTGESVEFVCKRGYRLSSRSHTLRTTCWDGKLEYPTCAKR

Turning to “CFHR1 Mut3 (Y52S/S54Y/Y57E) (from UniProt Q03591 19-330) (natural protein)”, the alternative pathway hemolysis of guinea pig erythrocytes in 10% NHS with 140 nM CFH plus 2 μM CFHR1 Mut3 (competition with CFH for C3b; ~8% with CFH alone) in test [1] stood at 12%.
Take CFHR1 (from UniProt Q03591): the Kd in the test with C3d C3d (Homo sapiens) was 1200 nM.
In test [2], “complement factor H (CFH), recombinant (from UniProt P08603-1 19-1231) (natural protein)” yielded an alternative pathway hemolysis of guinea pig erythrocytes in 10% NHS with 140 nM CFH added (~58% without added CFH) of 8%.
Regarding “CFHR1 Mut2 (Q238A/Y241A) (from UniProt Q03591 19-330) (natural protein)”, in test [2], the alternative pathway hemolysis of guinea pig erythrocytes in 10% NHS with 140 nM CFH plus 2 μM CFHR1 Mut2 (competition with CFH for C3b; ~8% with CFH alone) was found to be 6%.
Turning to “complement factor H-related protein 1 (CFHR1), recombinant wild-type (from UniProt Q03591 19-330) (natural protein)”, the alternative pathway hemolysis of guinea pig erythrocytes in 10% NHS with 140 nM CFH plus 2 μM wild-type CFHR1 (competition with CFH for C3b; ~8% with CFH alone) in test [2] came out at 23%.
“CFHR1 Mut1 (N216A/D218A) (from UniProt Q03591 19-330) (natural protein)”: the alternative pathway hemolysis of guinea pig erythrocytes in 10% NHS with 140 nM CFH plus 2 μM CFHR1 Mut1 (competition with CFH for C3b; ~8% with CFH alone) in test [2] came out at 8%.
CFHR3 (from UniProt Q02985): the Kd with C3d C3d (Homo sapiens) is 1100 nM.

By Kd is commonly meant a measure of binding affinity in units of concentration.
